Test results from patent US20260284244 (published 2026).

Target: T1, La/SSB N-terminal domain (La-NTD) (human, UniProt P05455)
T1 chain: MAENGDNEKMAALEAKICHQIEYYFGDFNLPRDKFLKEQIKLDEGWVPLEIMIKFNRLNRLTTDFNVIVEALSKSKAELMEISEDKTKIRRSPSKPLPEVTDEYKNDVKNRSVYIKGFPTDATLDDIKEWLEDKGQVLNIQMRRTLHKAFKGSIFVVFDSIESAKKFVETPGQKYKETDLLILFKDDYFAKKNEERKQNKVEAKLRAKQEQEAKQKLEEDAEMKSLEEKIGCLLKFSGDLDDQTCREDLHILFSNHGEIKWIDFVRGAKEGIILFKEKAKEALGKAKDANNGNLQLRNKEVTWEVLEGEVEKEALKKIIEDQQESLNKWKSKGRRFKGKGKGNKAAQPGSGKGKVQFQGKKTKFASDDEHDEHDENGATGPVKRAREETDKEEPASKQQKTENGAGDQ
Experiment: SPR

| Binder | Kd |
| --- | --- |
| VH3/VK6_K322A (antibody, V domains shown) VH: EVQLVQSGAEVKKPGASVKVSCKASGYAFTHYYIYWIRQAPGQGLEWMGGVNPSSGGTHYAEKFQGRVTLTVDTSSSTAYMELSSLRSEDTAVYYCTRSEYDYGLGFAYWGQGTLVTVSS VL: DIVMTQSPLSLPVTPGEPASISCRSSQSLLSSRTPKNYLAWYQQKPGQSPQLLIYWASTRKSGVPDRFSGSGSGTDFTLKISRVEAEDVGVYYCKQSYNLLTFGQGTKLEIK | 0.0136 µM |
| VH3/VK6_K322A_RadMab (antibody, V domains shown) VH: EVQLVQSGAEVKKPGASVKVSCKASGYAFTHYYIYWIRQAPGQGLEWMGGVNPSSGGTHYAEKFQGRVTLTVDTSSSTAYMELSSLRSEDTAVYYCTRSEYDYGLGFAYWGQGTLVTVSS VL: DIVMTQSPLSLPVTPGEPASISCRSSQSLLSSRTPKNYLAWYQQKPGQSPQLLIYWASTRKSGVPDRFSGSGSGTDFTLKISRVEAEDVGVYYCKQSYNLLTFGQGTKLEIKR | 0.00827 µM |
| VH6/VK8_K322A_RadMab (antibody, V domains shown) VH: EVQLVQSGAEVKKPGASVKVSCKASGYAFTHYYIYWIKQAPGQGLEWIGGVNPSNGGTHFNEKFKSRVTITVDKSASTAYMELSSLRSEDTAVYYCTRSEYDYGLGFAYWGQGTLVTVSS VL: EIVMTQSPDSLAVSLGERATINCKSSQSLLNSRTPKNYLAWYQQKPGQPPKLLIYWASTRESGVPDRFTGSGSGTDFTLTISSLQAEDVAVYYCKQSYNLLTFGQGTKLEIKR | 0.00872 µM |
| VH6/VK8_K322A (antibody, V domains shown) VH: EVQLVQSGAEVKKPGASVKVSCKASGYAFTHYYIYWIKQAPGQGLEWIGGVNPSNGGTHFNEKFKSRVTITVDKSASTAYMELSSLRSEDTAVYYCTRSEYDYGLGFAYWGQGTLVTVSS VL: EIVMTQSPDSLAVSLGERATINCKSSQSLLNSRTPKNYLAWYQQKPGQPPKLLIYWASTRESGVPDRFTGSGSGTDFTLTISSLQAEDVAVYYCKQSYNLLTFGQGTKLEIK | 0.0145 µM |
| chAPOMAB_VH0/VK0_K322A (antibody, V domains shown) VH: EVQLQQPGAELVKPGASVKLSCKASGYAFTHYYIYWIKQRPGQGLEWIGGVNPSNGGTHFNEKFKSKATLTVDKSSSTAYMQLSSLTSEDSAVYYCTRSEYDYGLGFAYWGQGTLLTVSS VL: EIVMSQSPSSLAVSAGEKVTMSCKSSQSLLNSRTPKNYLAWYQQKPGQSPKLLIYWASTRKSGVPDRFTGSGSGTDFTLTISSVQAEDLAVYYCKQSYNLLTFGAGTKLEL | 0.0182 µM |
